Values quoted from earlier work, collected in article PMC4858162.

Biological target: DNA polymerase III beta sliding clamp (Escherichia coli) (UniProt P0A988)

Kd: < 60 pM
Substance: DNA polymerase III beta sliding clamp (from UniProt P0A988)
